Assay results as given in article PMC4877109, “Structure of the Cellulose Synthase Complex of Gluconacetobacter hansenii at 23.4 Å Resolution” (PLoS ONE, 2016).

B1: AcsAB complex (AcsA + AcsB, cellulose synthase) (Novacetimonas hansenii) (protein)
chain: MPEVRSSTQSESGMSQWMGKILSIRGAGLIIGVFGLCALIAATSVTLPPEQQLIVAFVCVVIFFIVGHKPSRRSQIFLEVLSGLVSLRYLTWRLTETLSFDTWLQGLLGTMLLVAELYALMMLFLSYFQTIAPLHRAPLPLPPNPDEWPTVDIFVPTYNEELSIVRLTVLGSLGIDWPPEKVRVHILDDGRRPEFAAFAAECGANYIARPTNEHAKAGNLNYAIGHTDGDYILIFDCDHVPTRAFLQLTMGWMVEDPKIALMQTPHHFYSPDPFQRNLSAGYRTPPEGNLFYGVVQDGNDFWDATFFCGSCAILRRTAIEQIGGFATQTVTEDAHTALKMQRLGWSTAYLRIPLAGGLATERLILHIGQRVRWARGMLQIFRIDNPLFGRGLSWGQRLCYLSAMTSFLFAVPRVIFLSSPLAFLFFGQNIIAASPLALLAYAIPHMFHAVGTASKINKGWRYSFWSEVYETTMALFLVRVTIVTLLSPSRGKFNVTDKGGLLEKGYFDLGAVYPNIILGLIMFGGLARGVYELSFGHLDQIAERAYLLNSAWAMLSLIIILAAIAVGRETQQKRNSHRIPATIPVEVANADGSIIVTGVTEDLSMGGAAVKMSWPAKLSGPTPVYIRTVLDGEELILPARIIRAGNGRGIFIWTIDNLQQEFSVIRLVFGRADAWVDWGNYKADRPLLSLMDMVLSVKGLFRSSGDIVHRSSPTKPSAGNALSDDTNNPSRKERVLKGTVK
notes: acsAB fusion polypeptide with N-terminal His12 tag, processed in vivo into AcsA (83 kDa) and AcsB (93 kDa); homologous expression in G. hansenii (pUCD2CDHisAcsAB with acsCD); LFCE14 detergent, Co-NTA and size exclusion; ~180 kDa monomeric complex

Tests used:
[1] = target: T1, AcsAB complex (AcsA + AcsB, cellulose synthase) (Novacetimonas hansenii, UniProt Q76KJ8); test: UDP-14C-glucose incorporation with and without c-di-GMP; assay type: biochemical; details: allosteric activator (30 μM); 20 mM MgCl2, 2 mM UDP-glucose, pH 7.5, 30 °C
T1 construct: acsAB fusion polypeptide with N-terminal His12 tag, processed in vivo into AcsA (83 kDa) and AcsB (93 kDa); homologous expression in G. hansenii (pUCD2CDHisAcsAB with acsCD); LFCE14 detergent, Co-NTA and size exclusion; ~180 kDa monomeric complex
T1 sequence (Q76KJ8 742-1550, one chain of several): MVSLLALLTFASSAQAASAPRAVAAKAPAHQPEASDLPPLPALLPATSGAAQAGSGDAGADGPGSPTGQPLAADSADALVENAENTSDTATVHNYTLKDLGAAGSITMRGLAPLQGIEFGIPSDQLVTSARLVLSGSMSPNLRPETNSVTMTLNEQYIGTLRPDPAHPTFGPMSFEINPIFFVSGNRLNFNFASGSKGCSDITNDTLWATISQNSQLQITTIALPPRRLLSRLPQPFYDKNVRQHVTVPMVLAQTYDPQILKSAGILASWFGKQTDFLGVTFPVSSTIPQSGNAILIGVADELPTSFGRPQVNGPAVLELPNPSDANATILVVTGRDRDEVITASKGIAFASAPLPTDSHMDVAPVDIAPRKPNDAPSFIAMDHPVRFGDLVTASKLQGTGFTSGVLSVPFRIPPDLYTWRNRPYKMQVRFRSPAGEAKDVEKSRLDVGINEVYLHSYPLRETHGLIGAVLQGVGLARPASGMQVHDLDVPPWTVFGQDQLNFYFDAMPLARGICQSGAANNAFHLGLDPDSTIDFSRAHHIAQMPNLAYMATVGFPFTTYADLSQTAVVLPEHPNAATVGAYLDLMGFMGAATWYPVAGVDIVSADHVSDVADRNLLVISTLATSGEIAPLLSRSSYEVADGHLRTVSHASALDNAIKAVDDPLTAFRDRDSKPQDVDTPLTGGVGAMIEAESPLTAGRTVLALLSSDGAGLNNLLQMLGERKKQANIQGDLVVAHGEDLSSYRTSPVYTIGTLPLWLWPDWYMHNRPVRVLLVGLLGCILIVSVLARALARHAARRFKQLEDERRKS

[2] = substrate: O=c1ccn([C@@H]2O[C@H](CO[P@@](=O)(O)O[P@@](=O)(O)O[C@H]3O[C@H](CO)[C@@H](O)[C@H](O)[C@H]3O)[C@@H](O)[C@H]2O)c(=O)[nH]1; test: UDP-14C-glucose incorporation into insoluble glucan, scintillation counting, Michaelis-Menten fit; assay type: biochemical, Novacetimonas hansenii; details: Mg2+ 20 mM, 30 μM c-di-GMP, 5 mM cellobiose, 20 mM Tris-HCl pH 7.5, 100 mM NaCl, 30 °C, LFCE14 detergent-purified complex, labelled compound as tracer

Molecule | UDP-14C-glucose incorporation with and without c-di-GMP [1] | Km [2] | kcat [2]
Nc1nc2c(ncn2[C@@H]2O[C@@H]3COP(=O)(O)O[C@H]4[C@@H](O)[C@H](n5cnc6c(=O)[nH]c(N)nc65)O[C@@H]4COP(=O)(O)O[C@H]3[C@H]2O)c(=O)[nH]1 [c-di-GMP] | when c-di-GMP was omitted, the protein was not able to catalyze label incorporation into cellulose |  | 
B1 |  | 0.12 (± 0.03) mM | 2.9 molecules per complex per second
